PMC2557009, “YB-1 promotes microtubule assembly in vitro through interaction with tubulin and microtubules” (BMC Biochemistry, 2008)

Target: the molecule itself
Test: cross-linking; zero length cross-linker EDC (5 mM) / sulfo-NHS (12 mM); 1 μM tubulin and 0.3, 0.5, 0.8 or 1.2 μM YB-1, or each alone; 50 mM MES-KOH pH 6.8, 1 mM MgCl2, 1 mM EGTA, 0.5 mM GTP, 1 h at 30°C; SDS-PAGE, Coomassie and Western blot

B1: YB-1 (natural protein)
chain: not shown
notes: source: E. coli BL21(DE3), pET 3-1-YB-1 construct, purified (heparin-Sepharose, Sephacryl S-200)
In the case of B1, the “stoichiometry N” value is reported as 2.
